Where two headings read alike, the source gives them in different places.
Experiments:
[1] = molecular target: SMN Tudor domain (80-167 aa) with a C-terminal His6-tag (UniProt Q16637); assay: ITC; 2 mM or 5 mM ligand in the syringe injected into 200 uM or 300 uM SMN Tudor in the cell; 1x PBS, 25 °C; one site model with stoichiometry (N) fixed at 1
SMN Tudor domain (SMN) = molecular target: T1, SMN Tudor domain (SMN) (Homo sapiens, UniProt Q16637); assay: isothermal titration calorimetry (ITC), […] model, N fixed at […]; type: binding
T1 construct: gene SMN1; SMN Tudor domain (80–167 aa), C-terminal His6-tag
T1 sequence (Q16637 80-167): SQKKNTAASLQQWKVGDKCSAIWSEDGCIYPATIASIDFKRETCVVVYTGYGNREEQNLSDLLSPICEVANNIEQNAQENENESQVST

Sequence of SMN Tudor domain (80-167 aa) with a C-terminal His6-tag (Q16637 80-167): as above

Compound	Kd [1]	dH [1]	Kd (SMN Tudor domain (SMN); read-out: KD)	other results
SmD1-aDMA heptapeptide AGRme2aGRGR, residues 96–102 of SmD1	834 µM	-8.02 kcal/mol	–	–
CN=C(NC)NCCC[C@H](N)C(=O)O [sDMA, Symmetric dimethylarginine]	–	–	359 ± 45 µM	–
CNC(=N)NCCC[C@H](N)C(=O)O [MMA, Methylarginine (L-NMMA)]	–	–	–	Kd (SMN Tudor domain (SMN)): 1800 ± 322 µM
SmD1-sDMA heptapeptide AGRme2sGRGR, residues 96–102 of SmD1	375 µM	-14.5 kcal/mol	–	–
SmD1 heptapeptide AGRGRGR, residues 96–102 of SmD1	> 2000 µM	–	–	–
CN(C)C(=N)NCCC[C@H](N)C(=O)O [aDMA, Asymmetric dimethylarginine]	–	–	860 ± 34 µM	–
